Values belong to the molecule of their own block, whether it stands above or below them.
Tests used:
[1] = biological target: extracellular domain of rat neurexin-1-β (rat-NX1β-1), residues 48-300 (rat) (UniProt Q63373); test: SPR, β-neurexin immobilised; 111 nM
[2] = biological target: extracellular domain of rat neurexin-1-β (rat-NX1β-1), residues 48-300 (rat) (UniProt Q63373); test: SPR, β-neurexin immobilised; 3 µM
[3] = biological target: extracellular domain of rat neurexin-1-β (rat-NX1β-1), residues 48-300 (rat) (UniProt Q63373); test: SPR, NX1β immobilised
[4] = biological target: extracellular domain of rat neurexin-1-β (rat-NX1β-1), residues 48-300 (rat) (UniProt Q63373); test: SPR, NX1β immobilised; one value told for the four proteins
[5] = biological target: extracellular domain of rat neurexin-1-β (rat-NX1β-1), residues 48-300 (rat) (UniProt Q63373); test: SPR (BIAcore), NX1β immobilised
[6] = biological target: extracellular domain of rat neurexin-1-β (rat-NX1β-1), residues 48-300 (rat) (UniProt Q63373); test: SPR (BIAcore), NX1β immobilised; from ka and kd
[7] = biological target: extracellular domain of rat neurexin-1-β (rat-NX1β-1), residues 48-300 (rat) (UniProt Q63373); test: SPR, NX1β immobilised; treated against native protein
[8] = biological target: extracellular domain of rat neurexin-1-β (rat-NX1β-1), residues 48-300 (rat) (UniProt Q63373); test: SPR, NX1β immobilised; deglycosylated against native protein
[9] = biological target: extracellular domain of rat neurexin-1-β (rat-NX1β-1), residues 48-300 (rat) (UniProt Q63373); test: SPR, NX1β immobilised; sialidase II treated against native protein
[10] = biological target: extracellular domain of rat neurexin-1-β (rat-NX1β-1), residues 48-300 (rat) (UniProt Q63373); test: SPR (BIAcore), NX1β immobilised, NL1 62.5-2000 nM
[11] = biological target: extracellular domain of rat neurexin-1-β (rat-NX1β-1), residues 48-300 (rat) (UniProt Q63373); test: SPR, NX1β immobilised; treated against native protein, 500 nM

increase of NX1β binding activity after PNGase F digestion [3]: 17%
Molecule: N303A-NL1-638 (from UniProt Q62765 46-638) (receptor)

increase of NX1β binding activity after PNGase F digestion [4]: 229%
Molecule: S549A-NL1-638 (from UniProt Q62765 46-638) (receptor)

increase of NX1β binding activity after PNGase F digestion [4]: 229%
Molecule: T111A-NL1-638 (from UniProt Q62765 46-638) (receptor)

koff [5]: 0.015 s⁻¹ | kon [5]: 50000 M⁻¹ s⁻¹ | Kd [6]: 300 nM
Molecule: soluble truncated NL1 (recombinant, soluble entity; truncation not specified) (from UniProt Q62765 46-691) (receptor)

More lines, now with the values behind:

Molecule: R473T-NL1-691 (from UniProt Q62765 46-691) (receptor)
fold less total binding than wild type [1]: 3 fold

Molecule: R471C-NL3-639 (from UniProt Q62889 35-639) (receptor)
fold less β-neurexin binding than wild type [2]: 50 fold

Molecule: N343A-NL1-638 (from UniProt Q62765 46-638) (receptor)
increase of NX1β binding activity after PNGase F digestion [4]: 229%

B1: NL1-691 (soluble rat neuroligin-1 truncated by a stop codon at Tyr-692, N-terminal FLAG) (receptor)
chain: DYKDDDDKLAAANSSIDLQKLDDVDPLVTTNFGKIRGIKKELNNEILGPVIQFLGVPYAAPPTGEHRFQPPEPPSPWSDIRNATQFAPVCPQNIIDGRLPEVMLPVWFTNNLDVVSSYVQDQSEDCLYLNIYVPTEDVKRISKECARKPGKKICRKGDIRDSGGPKPVMVYIHGGSYMEGTGNLYDGSVLASYGNVIVITVNYRLGVLGFLSTGDQAAKGNYGLLDLIQALRWTSENIGFFGGDPLRITVFGSGAGGSCVNLLTLSHYSEGNRWSNSTKGLFQRAIAQSGTALSSWAVSFQPAKYARILATKVGCNVSDTVELVECLQKKPYKELVDQDVQPARYHIAFGPVIDGDVIPDDPQILMEQGEFLNYDIMLGVNQGEGLKFVENIVDSDDGVSASDFDFAVSNFVDNLYGYPEGKDVLRETIKFMYTDWADRHNPETRRKTLLALFTDHQWVAPAVATADLHSNFGSPTYFYAFYHHCQTDQVPAWADAAHGDEVPYVLGIPMIGPTELFPCNFSKNDVMLSAVVMTYWTNFAKTGDPNQPVPQDTKFIHTKPNRFEEVAWTRYSQKDQLYLHIGLKPRVKEHYRANKVNLWLELVPHLHNLNDISQYTSTTTKVPSTDITLRPTRKNSTPVTSAFPTAKQDDPKQQPSPFSVDQRD
fold increase in binding after combined sialidase II and PNGase F treatment [7]: 5 fold | fold increase in binding after PNGase F treatment [8]: 3 fold | fold increase in binding after sialidase-II treatment [9]: 2 to 2.5 fold

B2: NL1-638 (soluble rat neuroligin-1 truncated by a stop codon at Ile-639, N-terminal FLAG) (receptor)
chain: DYKDDDDKLAAANSSIDLQKLDDVDPLVTTNFGKIRGIKKELNNEILGPVIQFLGVPYAAPPTGEHRFQPPEPPSPWSDIRNATQFAPVCPQNIIDGRLPEVMLPVWFTNNLDVVSSYVQDQSEDCLYLNIYVPTEDVKRISKECARKPGKKICRKGDIRDSGGPKPVMVYIHGGSYMEGTGNLYDGSVLASYGNVIVITVNYRLGVLGFLSTGDQAAKGNYGLLDLIQALRWTSENIGFFGGDPLRITVFGSGAGGSCVNLLTLSHYSEGNRWSNSTKGLFQRAIAQSGTALSSWAVSFQPAKYARILATKVGCNVSDTVELVECLQKKPYKELVDQDVQPARYHIAFGPVIDGDVIPDDPQILMEQGEFLNYDIMLGVNQGEGLKFVENIVDSDDGVSASDFDFAVSNFVDNLYGYPEGKDVLRETIKFMYTDWADRHNPETRRKTLLALFTDHQWVAPAVATADLHSNFGSPTYFYAFYHHCQTDQVPAWADAAHGDEVPYVLGIPMIGPTELFPCNFSKNDVMLSAVVMTYWTNFAKTGDPNQPVPQDTKFIHTKPNRFEEVAWTRYSQKDQLYLHIGLKPRVKEHYRANKVNLWLELVPHLHNLND
fold binding over NL1-691 [10]: 2.5 fold | increase of NX1β binding activity after PNGase F digestion [4]: 229% | fold increase in binding after PNGase F treatment [8]: 3 fold | fold increase in binding after combined sialidase II and PNGase F treatment [11]: 5 fold | fold increase in binding after sialidase-II treatment [9]: 2 to 2.5 fold

B3: NL1-651 (soluble rat neuroligin-1 truncated by a stop codon at Thr-652, N-terminal FLAG) (receptor)
chain: DYKDDDDKLAAANSSIDLQKLDDVDPLVTTNFGKIRGIKKELNNEILGPVIQFLGVPYAAPPTGEHRFQPPEPPSPWSDIRNATQFAPVCPQNIIDGRLPEVMLPVWFTNNLDVVSSYVQDQSEDCLYLNIYVPTEDVKRISKECARKPGKKICRKGDIRDSGGPKPVMVYIHGGSYMEGTGNLYDGSVLASYGNVIVITVNYRLGVLGFLSTGDQAAKGNYGLLDLIQALRWTSENIGFFGGDPLRITVFGSGAGGSCVNLLTLSHYSEGNRWSNSTKGLFQRAIAQSGTALSSWAVSFQPAKYARILATKVGCNVSDTVELVECLQKKPYKELVDQDVQPARYHIAFGPVIDGDVIPDDPQILMEQGEFLNYDIMLGVNQGEGLKFVENIVDSDDGVSASDFDFAVSNFVDNLYGYPEGKDVLRETIKFMYTDWADRHNPETRRKTLLALFTDHQWVAPAVATADLHSNFGSPTYFYAFYHHCQTDQVPAWADAAHGDEVPYVLGIPMIGPTELFPCNFSKNDVMLSAVVMTYWTNFAKTGDPNQPVPQDTKFIHTKPNRFEEVAWTRYSQKDQLYLHIGLKPRVKEHYRANKVNLWLELVPHLHNLNDISQYTSTTTKVPS
fold binding over NL1-691 [10]: 2.5 fold
